Measured values published in patent US12227593B2, “Site-specific conjugation of glycosylated monoclonal antibodies with transglutaminase” (Janssen Biotech, Inc., priority 2020, dated 2025).

The substances below were run against T1, MTG (Streptomyces mobaraensis, UniProt P81453) (assay: MTG-catalyzed conjugation of 3-APA to mAbs, degree of labeling (DOL) by LC-MS). Conditions: different IgG backgrounds, MTG and 3-APA at 37° C., per full mAb.
T1 construct: purchased Activa TI or Zedira
T1 sequence (P81453 77-407): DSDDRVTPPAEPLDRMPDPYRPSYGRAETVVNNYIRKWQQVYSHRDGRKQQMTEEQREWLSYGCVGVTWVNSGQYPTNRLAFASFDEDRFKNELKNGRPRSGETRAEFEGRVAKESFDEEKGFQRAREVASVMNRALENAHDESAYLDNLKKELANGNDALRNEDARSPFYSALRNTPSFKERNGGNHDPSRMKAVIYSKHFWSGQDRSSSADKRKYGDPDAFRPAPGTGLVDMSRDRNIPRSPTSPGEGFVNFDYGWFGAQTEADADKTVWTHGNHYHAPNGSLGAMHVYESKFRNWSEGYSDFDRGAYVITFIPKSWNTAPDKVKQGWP
Assay type: biochemical, S. mobarensis
Protocol: To assess the suitability of the mAb variants for MTG-catalyzed conjugation, intact mAbs (1 mg/mL) were reacted with 3-azido propylamine (3-APA; 20-100-fold molar excess) and MTG (Activa TI, 5-20% w/v or Zedira, 5-20 units/mg of mAb) in PBS buffer at 22-37° C. for 30 min to overnight. Reactions were stopped by the addition of MTG blocker (Zedira) to 100 μM and analyzed by LC-MS following deglycosylation with PNGase F and reduction with dithiothreitol. The degree of labeling (DOL) was determined by mass spectrometry.
LC-MS was performed on an Agilent 1260 HPLC system connected to an Agilent G6224 MS-TOF Mass Spectrometer. LC was run on an Agilent RP-mAb C4 column (2.1×50 mm, 3.5 micron) at a flow rate of 1 mL/min with the mobile phase 0.1% formic acid in water (A) and 0.1% formic acid in acetonitrile (Sigma-Aldrich Cat #34688) (B) and a gradient of 20% B (0-2 min), 20-60% B (2-3 min), 60-80% B (3-5.5 min). The instrument was operated in positive electro-spray ionization mode and scanned from m/z 600 to 6000. Mass to charge spectrum was deconvoluted using the Maximum Entropy algorithm and DOL was estimated using relative intensities of the deconvoluted masses corresponding to intact mAb (for intact mass) or mAb heavy chain (for reduced mass) with the addition of multiples of 83 Da (corresponding to 3-APA).
Instrument settings included: capillary voltage 3500V; fragmentor 175V; skimmer 65V; gas temperature 325C; drying gas flow 5.0 L/min; nebulizer pressure 30 psig; acquisition mode range 100-7000 with 0.42 scan rate.

“Panitumumab WT deglycosylated: deglycosylated WT panitumumab” was tested. Which “DOL 18 hr” value did it give?
The value was 2.0.

With Panitumumab [Panitumumab WT] as the substance, how does the “DOL 18 hr” value read?
Its value is 1.2.

For “Pertuzumab WT deglycosylated: deglycosylated WT pertuzumab”, which “DOL 18 hr” value is on record?
Its value is 2.0.

Pertuzumab [Pertuzumab WT] was tested. Which “DOL 18 hr” value did it give?
Its value is 1.2.
